Experimental data published in patent US20230110188A1 (ARGENX IIP, published 2023).

Columns and labels:
[1] = molecular target: T1, Human MuSK (R&D Systems, cat. 10189-MK, histidine tag) (human, UniProt O15146 24-495); test: SPR (Biacore), MuSK-coated chip presaturated with 3F6c
T1 construct: Bought protein; also called human monomeric MuSK-6xhis; not shown: histidine tag (6xhis)
T1 sequence: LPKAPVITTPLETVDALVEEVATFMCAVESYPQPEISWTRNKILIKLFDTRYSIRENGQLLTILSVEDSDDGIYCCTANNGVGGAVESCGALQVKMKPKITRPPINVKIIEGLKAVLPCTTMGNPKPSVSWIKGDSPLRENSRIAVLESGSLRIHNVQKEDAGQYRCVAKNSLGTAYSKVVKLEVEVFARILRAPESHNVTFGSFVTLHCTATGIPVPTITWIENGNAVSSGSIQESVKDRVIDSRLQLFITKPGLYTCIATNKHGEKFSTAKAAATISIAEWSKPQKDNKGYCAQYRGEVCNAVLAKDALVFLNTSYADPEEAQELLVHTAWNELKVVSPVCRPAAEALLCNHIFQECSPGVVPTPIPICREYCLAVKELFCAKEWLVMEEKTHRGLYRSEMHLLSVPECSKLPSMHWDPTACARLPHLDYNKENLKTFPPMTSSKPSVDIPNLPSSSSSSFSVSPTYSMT

[2] = molecular target: T1, Human MuSK (R&D Systems, cat. 10189-MK, …); test: SPR (Biacore), MuSK-coated chip presaturated with 500 nM 4D3 (competitor)
Experimental: (§1) A chip was coated with ˜5000 RU of human MuSK (Lot nr DHUCO 11908A, batch nr 1089_MK). In a first experiment the saturating concentration of the pre-leads was determined. This is the concentration where the amplitude of a specific pre-lead doesn't increase anymore when additional pre-lead is injected on the immobilized MuSK.

[3] = molecular target: T1, Human MuSK (R&D Systems, cat. 10189-MK, …); test: SPR (Biacore), MuSK-coated chip presaturated with 500 nM 3F6c (competitor)
Experimental: as §1

[4] = molecular target: T1, Human MuSK (R&D Systems, cat. 10189-MK, …); test: SPR (Biacore), MuSK-coated chip presaturated with 500 nM 3D9b (competitor)
Experimental: as §1

[5] = molecular target: T1, Human MuSK (R&D Systems, cat. 10189-MK, …); test: SPR (Biacore), MuSK-coated chip presaturated with 500 nM 3D10a (competitor)
Experimental: as §1

[6] = molecular target: T1, Human MuSK (R&D Systems, cat. 10189-MK, …); test: SPR (Biacore), MuSK-coated chip, antibody alone (run of first antibody 4D3)
Experimental: as §1

[7] = molecular target: T1, Human MuSK (R&D Systems, cat. 10189-MK, …); test: SPR (Biacore), MuSK-coated chip, antibody alone (run of first antibody 3F6c)
Experimental: as §1

[8] = molecular target: T1, Human MuSK (R&D Systems, cat. 10189-MK, …); test: SPR (Biacore), MuSK-coated chip, antibody alone (run of first antibody 3D9b)
Experimental: as §1

[9] = molecular target: T1, Human MuSK (R&D Systems, cat. 10189-MK, …); test: SPR (Biacore), MuSK-coated chip, antibody alone (run of first antibody 3D10a)
Experimental: as §1

[10] = molecular target: T2, human monomeric MuSK FLAG streptavidin (in house produced, batch 27-6-2019) (human, UniProt O15146 24-495); test: epitope binning ELISA (coated anti-MuSK Fab, MuSK, IgG, anti-Fc HRP); competitor: 4D3
T2 construct: also called full length MuSK; not shown: FLAG and streptavidin tags
T2 sequence: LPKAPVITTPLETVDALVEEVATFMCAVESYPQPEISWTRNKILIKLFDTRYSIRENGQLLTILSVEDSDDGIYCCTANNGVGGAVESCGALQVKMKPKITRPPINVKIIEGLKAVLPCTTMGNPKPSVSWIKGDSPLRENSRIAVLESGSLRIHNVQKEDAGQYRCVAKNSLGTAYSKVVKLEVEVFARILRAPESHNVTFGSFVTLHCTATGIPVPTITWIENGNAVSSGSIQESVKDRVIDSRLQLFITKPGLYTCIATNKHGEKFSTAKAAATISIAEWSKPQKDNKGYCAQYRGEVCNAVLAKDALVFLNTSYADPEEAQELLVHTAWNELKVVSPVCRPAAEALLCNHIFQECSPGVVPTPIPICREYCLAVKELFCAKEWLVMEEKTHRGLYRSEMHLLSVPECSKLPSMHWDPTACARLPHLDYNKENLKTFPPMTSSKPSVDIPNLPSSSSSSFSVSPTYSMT
Experimental: (§2) For epitope binning—An ELISA plate was coated at 1 μg/ml of the anti-MuSK Fabs and incubated overnight at 4° C. Next, the plate was wash with PBS followed by blocking with 1% casein in PBS for one hour. After washing the plate, 1 μg/ml of human monomeric MuSK (in house produced, batch 27-6-2019) was incubated for one hour at RT. The plate was washed and anti-MuSK antibodies at 0.3-10 μg/ml were added to the plate and incubated for one hour at RT. After washing the plate, detection antibody (goat anti-human Fc HRP (Jackson Immunoresearch cat. 109-035-098)) was added at 5000 fold dilution in PBS 0.1% casein. The plate was incubated for one hour at RT and washed with PBS-T. TMB was added and the reaction was stopped by adding H2504. […]
(§3) For the epitope binning ELISA, a plate was coated with anti-MuSK Fab and human monomeric MuSK was added after blocking the plate. Next the different antibodies were added and allowed to bind.

[11] = molecular target: T2, human monomeric MuSK FLAG streptavidin …; test: epitope binning ELISA (coated anti-MuSK Fab, MuSK, IgG, anti-Fc HRP); competitor: 3D9b
Experimental: as §2, §3

[12] = molecular target: T2, human monomeric MuSK FLAG streptavidin …; test: epitope binning ELISA (coated anti-MuSK Fab, MuSK, IgG, anti-Fc HRP); competitor: 3F6c
Experimental: as §2, §3

[13] = molecular target: T2, human monomeric MuSK FLAG streptavidin …; test: epitope binning ELISA (coated anti-MuSK Fab, MuSK, IgG, anti-Fc HRP); competitor: 3B5wt
Experimental: as §2, §3

[14] = molecular target: T2, human monomeric MuSK FLAG streptavidin …; test: epitope binning ELISA (coated anti-MuSK Fab, MuSK, IgG, anti-Fc HRP); competitor: 3D10a
Experimental: as §2, §3

fold of binding signal against amplitude on non-saturated MuSK [1]: ≥ 3 fold | amplitude of prelead after presaturating MuSK (RU) [2]: 141 RU | extra amplitude (%) [2]: 93% | normalized extra amplitude (%) [2]: 88.1% | amplitude of prelead after presaturating MuSK (RU) [3]: 2230 RU | extra amplitude (%) [3]: 397% | normalized extra amplitude (%) [3]: 395% | amplitude of prelead after presaturating MuSK (RU) [4]: 2150 RU | extra amplitude (%) [4]: 539% | normalized extra amplitude (%) [4]: 538% | amplitude of prelead after presaturating MuSK (RU) [5]: 2260 RU | extra amplitude (%) [5]: 344% | normalized extra amplitude (%) [5]: 342% | amplitude of prelead without presaturating MuSK (RU) [6]: 151 RU | amplitude of prelead without presaturating MuSK (RU) [7]: 562 RU | amplitude of prelead without presaturating MuSK (RU) [8]: 399 RU | amplitude of prelead without presaturating MuSK (RU) [9]: 658 RU | OD 450 nm [10]: 1.96 OD | OD 450 nm [11]: 1.99 OD | OD 450 nm [12]: 2.03 OD | OD 450 nm [13]: 0.048 OD | OD 450 nm [14]: 1.88 OD
B1: 3B5 (antibody, V domains shown)
VH: QVQLVQSGAVVAKPGASVQVSCKTSGYTFTGQYLHWVRQAPGQGLEWIGWINPSSGVTKFAEKFEGRATMTRDTSITTAYIDLRSLRSDDTATYYCATLSLGVYYVGMVAWGQGTLVTVSS
VL: ELTQPPSVSVSPGQTATITCSGDGLAQQHVYWFQQRPGQAPLLIIYKDIERPSGIPERFSGSSSGTTAMLTISGVQAEDEADYYCQSGDRTATSVLFGGGTKMTVLG
notes: also called 3B5wt
